Data published in publication PMC4007762.

Experiments:
Conditions in all cases: reference: wild-type YFP-p120-1A; sites Y335
cortactin = cortactin (UniProt Q14247); assay: anti-YFP immunoprecipitation, cortactin blot
E-cadherin = E-cadherin (UniProt P12830); assay: anti-YFP immunoprecipitation, E-cadherin blot
VAV2 (endogenous) = VAV2 (endogenous) (UniProt P52735); assay: anti-YFP immunoprecipitation, VAV2 blot

binding against the reference (cortactin): weaker | binding against the reference (E-cadherin): stronger | binding against the reference (VAV2 (endogenous)): weaker
Substance: p120-1A (transfected YFP- or HA-tagged) (from UniProt P30999) Y335F
